Publication PMC8987015, “Studying Acetylation of Aconitase Isozymes by Genetic Code Expansion” (Frontiers in Chemistry, 2022)

B1: AcnA (Escherichia coli K-12) (protein)
chain: SSTLREASKDTLQAKDKTYHYYSLPLAAKSLGDITRLPKSLKVLLENLLRWQDGNSVTEEDIHALAGWLKNAHADREIAYRPARVLMQDFTGVPAVVDLAAMREAVKRLGGDTAKVNPLSPVDLVIDHSVTVDRFGDDEAFEENVRLEMERNHERYVFLKWGKQAFSRFSVVPPGTGICHQVNLEYLGKAVWSELQDGEWIAYPDTLVGTDSHTTMINGLGVLGWGVGGIEAEAAMLGQPVSMLIPDVVGFKLTGKLREGITATDLVLTVTQMLRKHGVVGKFVEFYGDGLDSLPLADRATIANMSPEYGATCGFFPIDAVTLDYMRLSGRSEDQVELVEKYAKAQGMWRNPGDEPIFTSTLELDMNDVEASLAGPKRPQDRVALPDVPKAFAASNELEVNATHKDRQPVDYVMNGHQYQLPDGAVVIAAITSCTNTSNPSVLMAAGLLAKKAVTLGLKRQPWVKASLAPGSKVVSDYLAKAKLTPYLDELGFNLVGYGCTTCIGNSGPLPDPIETAIKKSDLTVGAVLSGNRNFEGRIHPLVKTNWLASPPLVVAYALAGNMNINLASEPIGHDRKGDPVYLKDIWPSAQEIARAVEQVSTEMFRKEYAEVFEGTAEWKGINVTRSDTYGWQEDSTYIRLSPFFDEMQATPAPVEDIHGARILAMLGDSVTTDHISPAGSIKPDSPAGRYLQGRGVERKDFNSYGSRRGNHEVMMRGTFANIRIRNEMVPGVEGGMTRHLPDSDVVSIYDAAMRYKQEQTPLAVIAGKEYGSGSSRDWAAKGPRLLGIRVVIAESFERIHRSNLIGMGILPLEFPQGVTRKTLGLTGEEKIDIGDLQNLQPGATVPVTLTRADGSQEVVPCRCRIDTATELTYYQNDGILHYVIRNMLK
B2: AcnB (Escherichia coli K-12) (protein)
chain: MLEEYRKHVAERAAEGIAPKPLDANQMAALVELLKNPPAGEEEFLLDLLTNRVPPGVDEAAYVKAGFLAAIAKGEAKSPLLTPEKAIELLGTMQGGYNIHPLIDALDDAKLAPIAAKALSHTLLMFDNFYDVEEKAKAGNEYAKQVMQSWADAEWFLNRPALAEKLTVTVFKVTGETNTDDLSPAPDAWSRPDIPLHALAMLKNAREGIEPDQPGVVGPIKQIEALQQKGFPLAYVGDVVGTGSSRKSATNSVLWFMGDDIPHVPNKRGGGLCLGGKIAPIFFNTMEDAGALPIEVDVSNLNMGDVIDVYPYKGEVRNHETGELLATFELKTDVLIDEVRAGGRIPLIIGRGLTTKAREALGLPHSDVFRQAKDVAESDRGFSLAQKMVGRACGVKGIRPGAYCEPKMTSVGSQDTTGPMTRDELKDLACLGFSADLVMQSFCHTAAYPKPVDVNTHHTLPDFIMNRGGVSLRPGDGVIHSWLNRMLLPDTVGTGGDSHTRFPIGISFPAGSGLVAFAAATGVMPLDMPESVLVRFKGKMQPGITLRDLVHAIPLYAIKQGLLTVEKKGKKNIFSGRILEIEGLPDLKVEQAFELTDASAERSAAGCTIKLNKEPIIEYLNSNIVLLKWMIAEGYGDRRTLERRIQGMEKWLANPELLEADADAEYAAVIDIDLADIKEPILCAPNDPDDARPLSAVQGEKIDEVFIGSCMTNIGHFRAAGKLLDAHKGQLPTRLWVAPPTRMDAAQLTEEGYYSVFGKSGARIEIPGCSLCMGNQARVADGATVVSTSTRNFPNRLGTGANVFLASAELAAVAALIGKLPTPEEYQTYVAQVDKTAVDTYRYLNFNQLSQYTEKADGVIFQTAV

Columns and labels:
AcnB = AcnB (Escherichia coli, UniProt P36683); details: citrate 0.1 to 50 mM; enzyme reactivated with 1 mM (NH4)2Fe(SO4)2 and 5 mM DTT, 50 mM Tris pH 8
AcnA = AcnA (Escherichia coli, UniProt P25516); details: citrate 0.1 to 50 mM; enzyme reactivated with 1 mM (NH4)2Fe(SO4)2 and 5 mM DTT, 50 mM Tris pH 8
purified protein = substrate: O=C(O)CC(O)(CC(=O)O)C(=O)O; test: purified protein; details: citrate 0.1 to 50 mM, enzyme reactivated with 1 mM (NH4)2Fe(SO4)2 and 5 mM DTT, 50 mM Tris pH 8

| Molecule | Km (AcnB) [mM] | Km (AcnA) [mM] | Km (purified protein) [mM] | kcat (purified protein) [s⁻¹] |
| --- | --- | --- | --- | --- |
| O=C(O)CC(O)(CC(=O)O)C(=O)O [citrate] | 9.76 ± 0.67 | 3.45 ± 0.23 | – | – |
| B1 | – | – | 1.64 ± 0.21 | 20.6 ± 1.62 |
| B2 | – | – | 9.34 ± 0.72 | 63.5 ± 4.52 |
